Test results published in US20230248820A1.

Molecular target: HCMV pentameric complex gH/gL/pUL128/pUL130/pUL131A (Pentamer), wild type, Merlin strain (HCMV Merlin strain) (UniProt Q6SW67)
Experiment: method not stated

Substance: 8I21 with HCDR3 Trp105 mutated to alanine (antibody)
- fold decrease in binding affinity against 8I21 without the mutation: > 150 fold
